Results: PMC9482650, “Quantitative fragmentomics allow affinity mapping of interactomes” (Nature Communications, 2022)

Key:
Test in all cases: holdup assay
Set-up in all cases: key: below the threshold = too weak to quantify, mostly under pKd 3.1 to 4
MAST1, Q9Y2H9 = target: MAST1, Q9Y2H9
SNTA1, Q13424 = target: T1, SNTA1, Q13424
T1 sequence (Q13424 82-180, limits assumed, looked up): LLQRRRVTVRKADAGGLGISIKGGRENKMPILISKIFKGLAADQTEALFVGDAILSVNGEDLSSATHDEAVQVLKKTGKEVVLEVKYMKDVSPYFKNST

MPP7, Q5T2T1 = target: T2, MPP7, Q5T2T1
T2 sequence (Q5T2T1 134-230, limits assumed, looked up): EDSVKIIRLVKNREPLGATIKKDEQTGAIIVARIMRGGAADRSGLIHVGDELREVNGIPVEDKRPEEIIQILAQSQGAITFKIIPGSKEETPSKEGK

IL16_3, Q14005 = target: IL16_3, Q14005
Sequence of IL16_3, Q14005 (Q14005 1107-1207): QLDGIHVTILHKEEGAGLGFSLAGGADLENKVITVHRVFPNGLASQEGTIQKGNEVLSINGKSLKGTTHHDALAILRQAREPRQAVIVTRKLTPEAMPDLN

GRID2IP_2, A4D2P6 = target: GRID2IP_2, A4D2P6
Sequence of GRID2IP_2, A4D2P6 (A4D2P6 272-370): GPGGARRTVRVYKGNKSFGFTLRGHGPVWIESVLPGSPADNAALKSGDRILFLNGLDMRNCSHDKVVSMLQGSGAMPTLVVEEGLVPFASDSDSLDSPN

ARHGEF12, Q9NZN5-2 = target: ARHGEF12, Q9NZN5-2
Sequence of ARHGEF12, Q9NZN5-2 (Q9NZN5 other isoform, or with tags, fused parts or gaps): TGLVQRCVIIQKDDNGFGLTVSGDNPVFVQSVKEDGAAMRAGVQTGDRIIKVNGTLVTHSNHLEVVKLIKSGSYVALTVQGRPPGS

RAPGEF6, Q8TEU7 = target: T3, RAPGEF6, Q8TEU7
T3 sequence (Q8TEU7 525-625, limits assumed, looked up): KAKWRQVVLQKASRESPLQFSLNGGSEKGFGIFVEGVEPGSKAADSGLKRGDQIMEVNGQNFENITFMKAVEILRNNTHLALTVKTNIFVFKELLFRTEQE

DLG5_1, Q8TDM6 = target: DLG5_1, Q8TDM6
Sequence of DLG5_1, Q8TDM6 (Q8TDM6 617-713): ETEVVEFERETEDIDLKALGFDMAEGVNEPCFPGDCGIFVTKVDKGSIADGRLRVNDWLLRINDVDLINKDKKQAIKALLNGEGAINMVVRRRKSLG

HTRA1, Q92743 = target: HTRA1, Q92743
Sequence of HTRA1, Q92743 (Q92743 360-477): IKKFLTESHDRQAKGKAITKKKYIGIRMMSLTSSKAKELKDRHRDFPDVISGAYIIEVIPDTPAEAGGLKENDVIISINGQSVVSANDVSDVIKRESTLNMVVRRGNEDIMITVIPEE

SNTG2, Q9NY99 = target: T4, SNTG2, Q9NY99
T4 sequence (Q9NY99 68-166, limits assumed, looked up): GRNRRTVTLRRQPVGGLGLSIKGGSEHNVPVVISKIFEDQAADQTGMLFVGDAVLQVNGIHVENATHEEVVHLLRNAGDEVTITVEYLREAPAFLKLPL

FRMPD3, Q5JV73 = target: FRMPD3, Q5JV73
Sequence of FRMPD3, Q5JV73 (Q5JV73 12-100): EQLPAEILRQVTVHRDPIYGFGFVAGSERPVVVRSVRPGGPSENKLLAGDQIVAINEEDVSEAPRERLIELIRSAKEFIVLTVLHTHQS

APBA1_1, Q02410 = target: T5, APBA1_1, Q02410
T5 sequence (Q02410 651-752, limits assumed, looked up): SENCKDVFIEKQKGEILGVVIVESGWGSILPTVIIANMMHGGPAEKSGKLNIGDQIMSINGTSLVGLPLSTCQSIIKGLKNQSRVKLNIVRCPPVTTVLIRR

RHPN1, Q8TCX5 = target: T6, RHPN1, Q8TCX5
T6 sequence (Q8TCX5 508-602, limits assumed, looked up): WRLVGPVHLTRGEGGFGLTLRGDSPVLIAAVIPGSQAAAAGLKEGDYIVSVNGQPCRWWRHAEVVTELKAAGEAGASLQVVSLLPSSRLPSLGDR

PDZRN3_1, Q9UPQ7 = target: T7, PDZRN3_1, Q9UPQ7
T7 sequence (Q9UPQ7 244-349, limits assumed, looked up): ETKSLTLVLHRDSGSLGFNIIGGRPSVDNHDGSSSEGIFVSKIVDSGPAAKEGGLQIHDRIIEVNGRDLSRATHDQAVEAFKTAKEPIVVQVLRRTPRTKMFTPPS

NHERF3_3, Q5T2W1 = target: T8, NHERF3_3, Q5T2W1
T8 sequence (Q5T2W1 238-333, limits assumed, looked up): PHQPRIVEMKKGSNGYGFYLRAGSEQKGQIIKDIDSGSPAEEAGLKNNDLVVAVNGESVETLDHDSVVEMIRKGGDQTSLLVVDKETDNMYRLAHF

ARHGEF11, O15085 = target: T9, ARHGEF11, O15085
T9 sequence (O15085 42-136, limits assumed, looked up): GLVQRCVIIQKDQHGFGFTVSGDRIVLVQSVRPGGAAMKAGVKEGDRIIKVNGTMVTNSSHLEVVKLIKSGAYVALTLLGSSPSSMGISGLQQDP

TJP1_3, Q07157 = target: TJP1_3, Q07157
Sequence of TJP1_3, Q07157 (Q07157 416-512): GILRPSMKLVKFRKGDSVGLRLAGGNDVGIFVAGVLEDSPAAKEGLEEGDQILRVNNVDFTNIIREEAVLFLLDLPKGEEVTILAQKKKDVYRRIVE

MAGI2_2, Q86UL8 = target: MAGI2_2, Q86UL8
Sequence of MAGI2_2, Q86UL8 (Q86UL8 410-522): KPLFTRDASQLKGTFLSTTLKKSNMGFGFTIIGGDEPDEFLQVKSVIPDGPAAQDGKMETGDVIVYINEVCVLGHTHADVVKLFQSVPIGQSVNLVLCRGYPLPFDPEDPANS

MAGI3_2, Q5TCQ9 = target: MAGI3_2, Q5TCQ9
Sequence of MAGI3_2, Q5TCQ9 (Q5TCQ9 398-503): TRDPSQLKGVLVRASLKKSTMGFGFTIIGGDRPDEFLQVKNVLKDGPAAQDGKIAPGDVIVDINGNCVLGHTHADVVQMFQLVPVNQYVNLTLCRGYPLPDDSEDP

PTPN3, P26045 = target: PTPN3, P26045
Sequence of PTPN3, P26045 (P26045 505-587): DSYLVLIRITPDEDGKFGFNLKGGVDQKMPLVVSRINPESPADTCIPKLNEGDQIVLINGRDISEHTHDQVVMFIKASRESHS

RADIL, Q96JH8 = target: T10, RADIL, Q96JH8
T10 sequence (Q96JH8 971-1071, limits assumed, looked up): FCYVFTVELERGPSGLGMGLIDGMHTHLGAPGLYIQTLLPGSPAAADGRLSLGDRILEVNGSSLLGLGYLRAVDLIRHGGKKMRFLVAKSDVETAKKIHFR

Inadl_5, Q8NI35 = target: Inadl_5, Q8NI35
Sequence of Inadl_5, Q8NI35 (Q8NI35 673-780): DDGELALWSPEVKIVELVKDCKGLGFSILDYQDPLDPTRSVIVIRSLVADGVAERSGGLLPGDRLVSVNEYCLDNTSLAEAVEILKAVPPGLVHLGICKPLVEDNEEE

Inadl_3, Q8NI35 = target: Inadl_3, Q8NI35
Sequence of Inadl_3, Q8NI35 (Q8NI35 359-469): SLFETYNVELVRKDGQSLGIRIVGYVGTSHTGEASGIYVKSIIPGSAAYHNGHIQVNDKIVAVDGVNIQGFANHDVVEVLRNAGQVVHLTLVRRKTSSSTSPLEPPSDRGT

LNX1_2, Q8TBB1 = target: LNX1_2, Q8TBB1
Sequence of LNX1_2, Q8TBB1 (Q8TBB1 371-470): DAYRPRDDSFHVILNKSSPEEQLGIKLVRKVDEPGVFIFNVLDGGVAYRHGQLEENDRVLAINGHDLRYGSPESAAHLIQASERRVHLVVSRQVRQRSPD

PDLIM1, O00151 = target: PDLIM1, O00151
Sequence of PDLIM1, O00151 (O00151 1-87): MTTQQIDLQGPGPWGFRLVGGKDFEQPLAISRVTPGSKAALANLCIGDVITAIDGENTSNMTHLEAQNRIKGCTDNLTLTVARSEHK

IL16_1, Q14005 = target: IL16_1, Q14005
Sequence of IL16_1, Q14005 (Q14005 210-306): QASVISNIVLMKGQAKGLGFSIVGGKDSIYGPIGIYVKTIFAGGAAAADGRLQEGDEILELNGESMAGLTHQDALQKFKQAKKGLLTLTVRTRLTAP

GRIP1_2, Q9Y3R0 = target: T11, GRIP1_2, Q9Y3R0
T11 sequence (Q9Y3R0 145-248, limits assumed, looked up): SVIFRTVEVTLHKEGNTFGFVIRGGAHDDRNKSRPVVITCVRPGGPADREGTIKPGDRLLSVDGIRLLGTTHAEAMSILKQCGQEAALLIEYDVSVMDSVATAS

[1] = plain residues with an end cap or a label only (N-terminal biotin on a linker: ttds)
[2] = plain residues with an end cap or a label only (N-terminal biotin on a linker: ahx)

Sequence of MAST1, Q9Y2H9 (Q9Y2H9 962-1065): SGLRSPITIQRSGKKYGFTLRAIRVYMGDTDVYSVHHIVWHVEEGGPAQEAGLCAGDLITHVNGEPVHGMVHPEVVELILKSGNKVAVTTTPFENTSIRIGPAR

DEDQHTQITKV [PTEN, P60484]
pKd (MAST1, Q9Y2H9; [1]): 4.79
pKd (SNTA1, Q13424; [1]): 4.04
pKd (MPP7, Q5T2T1; [1]): below the threshold
pKd (IL16_3, Q14005; [1]): below the threshold
pKd (GRID2IP_2, A4D2P6; [1]): 4.03
pKd (ARHGEF12, Q9NZN5-2; [1]): 4.2
pKd (RAPGEF6, Q8TEU7; [1]): below the threshold
pKd (DLG5_1, Q8TDM6; [1]): below the threshold
pKd (HTRA1, Q92743; [1]): 4.27
pKd (SNTG2, Q9NY99; [1]): 4.03
pKd (FRMPD3, Q5JV73; [1]): below the threshold
pKd (APBA1_1, Q02410; [1]): below the threshold
pKd (RHPN1, Q8TCX5; [1]): 4.36
pKd (PDZRN3_1, Q9UPQ7; [1]): 4.23
pKd (NHERF3_3, Q5T2W1; [1]): 3.67
pKd (ARHGEF11, O15085; [1]): 4.33
pKd (TJP1_3, Q07157; [1]): below the threshold
pKd (MAGI2_2, Q86UL8; [1]): below the threshold
pKd (MAGI3_2, Q5TCQ9; [1]): 4.03
pKd (PTPN3, P26045; [1]): 3.94
pKd (RADIL, Q96JH8; [1]): 3.91
pKd (Inadl_5, Q8NI35; [1]): below the threshold
pKd (Inadl_3, Q8NI35; [1]): 3.45
pKd (LNX1_2, Q8TBB1; [1]): 3.77
pKd (PDLIM1, O00151; [1]): below the threshold

GIFPTLTSPL [SHROOM3, Q8TF72]
pKd (MAST1, Q9Y2H9; [2]): 3.5
pKd (SNTA1, Q13424; [2]): below the threshold
pKd (MPP7, Q5T2T1; [2]): below the threshold
pKd (IL16_3, Q14005; [2]): below the threshold
pKd (GRID2IP_2, A4D2P6; [2]): below the threshold
pKd (ARHGEF12, Q9NZN5-2; [2]): 4.26
pKd (RAPGEF6, Q8TEU7; [2]): below the threshold
pKd (DLG5_1, Q8TDM6; [2]): below the threshold
pKd (HTRA1, Q92743; [2]): below the threshold
pKd (SNTG2, Q9NY99; [2]): below the threshold
pKd (FRMPD3, Q5JV73; [2]): below the threshold
pKd (IL16_1, Q14005; [2]): below the threshold
pKd (APBA1_1, Q02410; [2]): below the threshold
pKd (RHPN1, Q8TCX5; [2]): 4.27
pKd (PDZRN3_1, Q9UPQ7; [2]): 3.49
pKd (NHERF3_3, Q5T2W1; [2]): below the threshold
pKd (ARHGEF11, O15085; [2]): 3.49
pKd (TJP1_3, Q07157; [2]): below the threshold
pKd (MAGI2_2, Q86UL8; [2]): below the threshold
pKd (MAGI3_2, Q5TCQ9; [2]): below the threshold
pKd (PTPN3, P26045; [2]): 3.99
pKd (RADIL, Q96JH8; [2]): below the threshold
pKd (Inadl_5, Q8NI35; [2]): below the threshold
pKd (Inadl_3, Q8NI35; [2]): below the threshold
pKd (LNX1_2, Q8TBB1; [2]): below the threshold
pKd (PDLIM1, O00151; [2]): 3.61

LCKSHAFSHV [PDLIM7, Q9NR12;Q9NR12-1]
pKd (SNTA1, Q13424; [2]): below the threshold
pKd (MPP7, Q5T2T1; [2]): below the threshold
pKd (IL16_3, Q14005; [2]): below the threshold
pKd (RAPGEF6, Q8TEU7; [2]): below the threshold
pKd (GRIP1_2, Q9Y3R0; [2]): below the threshold
pKd (DLG5_1, Q8TDM6; [2]): below the threshold
pKd (SNTG2, Q9NY99; [2]): below the threshold
pKd (FRMPD3, Q5JV73; [2]): below the threshold
pKd (APBA1_1, Q02410; [2]): below the threshold
pKd (RHPN1, Q8TCX5; [2]): 4.38
pKd (PDZRN3_1, Q9UPQ7; [2]): below the threshold
pKd (NHERF3_3, Q5T2W1; [2]): below the threshold
pKd (TJP1_3, Q07157; [2]): below the threshold
pKd (MAGI2_2, Q86UL8; [2]): 4.11
pKd (MAGI3_2, Q5TCQ9; [2]): 4.3
pKd (PTPN3, P26045; [2]): below the threshold
pKd (RADIL, Q96JH8; [2]): 3.99
pKd (Inadl_5, Q8NI35; [2]): below the threshold
pKd (Inadl_3, Q8NI35; [2]): below the threshold
pKd (LNX1_2, Q8TBB1; [2]): below the threshold
pKd (PDLIM1, O00151; [2]): below the threshold

CLDTSRETDL [KCNA5, P22460]
pKd (MAST1, Q9Y2H9; [1]): 4.91
pKd (SNTA1, Q13424; [1]): 5.34
pKd (MPP7, Q5T2T1; [1]): below the threshold
pKd (IL16_3, Q14005; [1]): below the threshold
pKd (GRID2IP_2, A4D2P6; [1]): 3.7
pKd (ARHGEF12, Q9NZN5-2; [1]): 4.32
pKd (RAPGEF6, Q8TEU7; [1]): below the threshold
pKd (GRIP1_2, Q9Y3R0; [1]): 3.65
pKd (DLG5_1, Q8TDM6; [1]): below the threshold
pKd (HTRA1, Q92743; [1]): below the threshold
pKd (SNTG2, Q9NY99; [1]): 4.45
pKd (FRMPD3, Q5JV73; [1]): below the threshold
pKd (IL16_1, Q14005; [1]): 3.5
pKd (APBA1_1, Q02410; [1]): below the threshold
pKd (RHPN1, Q8TCX5; [1]): 4.46
pKd (PDZRN3_1, Q9UPQ7; [1]): 4.38
pKd (NHERF3_3, Q5T2W1; [1]): below the threshold
pKd (ARHGEF11, O15085; [1]): 4
pKd (TJP1_3, Q07157; [1]): below the threshold
pKd (MAGI2_2, Q86UL8; [1]): below the threshold
pKd (MAGI3_2, Q5TCQ9; [1]): below the threshold
pKd (PTPN3, P26045; [1]): 4.92
pKd (RADIL, Q96JH8; [1]): below the threshold
pKd (Inadl_5, Q8NI35; [1]): below the threshold
pKd (Inadl_3, Q8NI35; [1]): below the threshold
pKd (LNX1_2, Q8TBB1; [1]): below the threshold
pKd (PDLIM1, O00151; [1]): 4.29
